B1: human Fat4(EC1–4) [human] / human Dchs1(EC1–4) [human] (parent complex)
chain 1: DPAEPRQVFQVLEEQPPGTLVGTIQTRPGFTYRLSESHALFAINSSTGALYTTSTIDRESLPSDVINLVVLSSAPTYPTEVRVLVRDLNDNAPVFPDPSIVVTFKEDSSSGRQVILDTATDSDIGSNGVDHRSYRIIRGNEAGRFRLDITLNPSGEGAFLHLVSKGGLDREVTPQYQLLVEVEDKGEPKRRGYLQVNVTVQDINDNPPVFGSSHYQAGVPEDAVVGSSVLQVAAADADEGTNADIRYRLQDEGTPFQMDPETGLITVREPLDFEARRQYSLTVQAMDRGVPSLTGRAEALIQLLDVNDNDPVVKFRYFPATSRYASVDENAQVGTVVALLTVTDADSPAANGNISVQILGGNEQRHFEVQSSKVPNLSLIKVASALDRERIPSYNLTVSVSDNYGAPPGAAVQARSSVASLVIFVNDINDHPPVF
chain 2: DPQAGSLDLQIDEEQPAGTLIGDISAGLPAGTAAPLMYFISAQEGSGVGTDLAIDEHSGVVRTARVLDREQRDRYRFTAVTPDGATVEVTVRVADINDHAPAFPQARAALQVPEHTAFGTRYPLEPARDADAGRLGTQGYALSGDGAGETFRLETRPGPDGTPVPELVVTGELDRENRSHYMLQLEAYDGGSPPRRAQALLDVTLLDINDHAPAFNQSRYHAVVSESLAPGSPVLQVFASDADAGVNGAVTYEINRRQSEGDGPFSIDAHTGLLQLERPLDFEQRRVHELVVQARDGGAHPELGSAFVTVHVRDANDNQPSMTVIFLSADGSPQVSEAAPPGQLVARISVSDPDDGDFAHVNVSLEGGEGHFALSTQDSVIYLVCVARRLDREERDAYNLRVTATDSGSPPLRAEAAFVLHVTDVNDNAPAF
B2: human Dchs1(EC1–4) [human] / human Fat4(EC1–4) [human] (parent complex)
chain 1: B1 chain 2
chain 2: B1 chain 1

Variants of: B1
Assay: ITC; parent: 1; read off a plot

Row | ratio to parent | Variant
1 | ~1.8 | chain 1 DPAEPRQVFQVLEEQPPGTLVGTIQTRPGFTYRLSESHALFAINSSTGALYTTSTIDRESLPSDVINLVVLSSAPTYPTEVRVLVRDLNDNAPVFPDPSIVVTFKEDSSSGRQVILDTATDSDIGSNGVDHRSYRIIRGNEAGRFRLDITLNPSGEGAFLHLVSKGGLDREVTPQYQLLVEVEDKGEPKRRGYLQVNVTVQDINDNPPVFGSSHYQAGVPEDAVVGSSVLQVAAADADEGTNADIRYRLQDEGTPFQMDPETGLITVREPLDFEARRQYSLTVQAMDRGVPSLTGRAEALIQLLDVNDNDPVVKFRYAPATSRYASVDENAQVGTVVALLTVTDADSPAANGNISVQILGGNEQRHFEVQSSKVPNLSLIKVASALDRERIPSYNLTVSVSDNYGAPPGAAVQARSSVASLVIFVNDINDHPPVF [chain 1 F318A]

Variants of: B2
Assay: ITC; parent: 1; read off a plot

Row | ratio to parent | Variant
2 | ~4.4 | chain 1 DPQAGSLDLQIDEEQPAGTLIGDISAGLPAGTAAPLMYAISAQEGSGVGTDLAIDEHSGVVRTARVLDREQRDRYRFTAVTPDGATVEVTVRVADINDHAPAFPQARAALQVPEHTAFGTRYPLEPARDADAGRLGTQGYALSGDGAGETFRLETRPGPDGTPVPELVVTGELDRENRSHYMLQLEAYDGGSPPRRAQALLDVTLLDINDHAPAFNQSRYHAVVSESLAPGSPVLQVFASDADAGVNGAVTYEINRRQSEGDGPFSIDAHTGLLQLERPLDFEQRRVHELVVQARDGGAHPELGSAFVTVHVRDANDNQPSMTVIFLSADGSPQVSEAAPPGQLVARISVSDPDDGDFAHVNVSLEGGEGHFALSTQDSVIYLVCVARRLDREERDAYNLRVTATDSGSPPLRAEAAFVLHVTDVNDNAPAF [chain 1 F39A]

— article PMC9935876, “Structure of the planar cell polarity cadherins Fat4 and Dachsous1” (Nature Communications, 2023)
